# Assay results taken from patent US20240424107.
# System: IgG Fc dimer protein, P01857-1
# Conditions: printed ggAGG[2'-F-rU]Gc[2'-F-rU]ccgaaaGgaa[2'-F-rC][2'-F-rU]cc (lowercase DNA, uppercase RNA); about 10 oxanine nucleotides added at 3' end; at least one aptamer per Fc dimer, one or two observed; HEPES pH 8.4, Mg, K, 37 C, 1 day
sequence,measurement,value
GGAGGTGCTCCGAAAGGAACTCC [Fc RNA aptamer Apt8-2-oxanine],activity (% conjugation),> 98
